From article PMC9352680, “A comprehensive thermodynamic model for RNA binding by the Saccharomyces cerevisiae Pumilio protein PUF4”

Biological target: T1, PUF4 RNA-binding domain (Saccharomyces cerevisiae, UniProt P25339 537-888)
T1 sequence: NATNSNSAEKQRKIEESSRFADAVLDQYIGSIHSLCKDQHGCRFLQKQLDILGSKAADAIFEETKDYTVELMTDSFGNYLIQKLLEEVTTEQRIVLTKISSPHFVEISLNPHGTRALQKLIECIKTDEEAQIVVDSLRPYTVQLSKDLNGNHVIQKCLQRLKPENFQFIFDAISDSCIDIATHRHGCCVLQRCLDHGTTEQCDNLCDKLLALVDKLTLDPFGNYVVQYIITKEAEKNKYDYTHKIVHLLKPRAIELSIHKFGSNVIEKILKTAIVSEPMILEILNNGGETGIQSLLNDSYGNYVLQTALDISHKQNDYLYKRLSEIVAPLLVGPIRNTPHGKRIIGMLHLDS
Assay: Mg; RNA-MaP; 20 mM Na-HEPES pH 7.4, 30 mM KOAc, 0.75 mM MgCl2, 0.1% Tween-20, 5% glycerol, 0.1 mg/mL BSA, 2 mM DTT; 25 C; 0.0125-409.6 nM protein
Conditions: tags: N-His6-TEV cleaved; C-SNAP kept, Cy3B-labelled; label: tethered on chip by stalled RNA polymerase

## UCUCUUUAACACUAUUAGUUCUCUU (ssRNA) [Id_ii_S1_P4E.4_K4.3_C4.2_[C-2T]_[T-1A]_H4.3_A4.1_F4.1_T4.2]
  Kd: > 2300 nM

## UCUCUUACACACUAUUAACUCUCUU (ssRNA) [Id_ii_S1_P4E.4_K4.3_C4.2_[C-2A]_[T-1C]_H4.3_A4.1_F4.1_T4.2_[G10A]_[T11C]]
  Kd: > 2300 nM

## UCUCUUGCACACUAUUAUUUCUCUU (ssRNA) [Id_ii_S1_P4E.4_K4.3_C4.2_[C-2G]_[T-1C]_H4.3_A4.1_F4.1_T4.2_[G10T]]
  Kd: 71 nM

## UCUCUUGCACACUAUUACUUCUCUU (ssRNA) [Id_ii_S1_P4E.4_K4.3_C4.2_[C-2G]_[T-1C]_H4.3_A4.1_F4.1_T4.2_[G10C]]
  Kd: 74.1 nM

## UCUCUUUGACACUAUUAUAUCUCUU (ssRNA) [Id_ii_S1_P4E.4_K4.3_C4.2_[C-2T]_[T-1G]_H4.3_A4.1_F4.1_T4.2_[G10T]_[T11A]]
  Kd: 2180 nM

## UCUCUUAGACACUAUUACAUCUCUU (ssRNA) [Id_ii_S1_P4E.4_K4.3_C4.2_[C-2A]_[T-1G]_H4.3_A4.1_F4.1_T4.2_[G10C]_[T11A]]
  Kd: > 2300 nM

## UCUCUUUGACACUAUUACCUCUCUU (ssRNA) [Id_ii_S1_P4E.4_K4.3_C4.2_[C-2T]_[T-1G]_H4.3_A4.1_F4.1_T4.2_[G10C]_[T11C]]
  Kd: > 2300 nM

## UCUCUUUGUUUAGUAUCUCUU (ssRNA) [Ib_S1_P4E.1_K4.1_C4.1_H4.1_[A4T]_A4.1_[T7G]_F4.1_T4.1]
  Kd: 24.4 nM

## UCUCUUGUACACUAUUAAUUCUCUU (ssRNA) [Id_ii_S1_P4E.4_K4.3_C4.2_[C-2G]_H4.3_A4.1_F4.1_T4.2_[G10A]]
  Kd: 1.04 nM

## UCUCUUUGUCUAAUAUCUCUU (ssRNA) [Ib_S1_P4E.1_K4.1_C4.1_H4.1_[A4C]_A4.1_[T7A]_F4.1_T4.1]
  Kd: 83.9 nM

## UCUCUUUUACACUAUUAGCUCUCUU (ssRNA) [Id_ii_S1_P4E.4_K4.3_C4.2_[C-2T]_H4.3_A4.1_F4.1_T4.2_[T11C]]
  Kd: 1600 nM

## UCUCUUUGACACUAUUACAUCUCUU (ssRNA) [Id_ii_S1_P4E.4_K4.3_C4.2_[C-2T]_[T-1G]_H4.3_A4.1_F4.1_T4.2_[G10C]_[T11A]]
  Kd: > 2300 nM

## UCUCUUUUACACUAUUAACUCUCUU (ssRNA) [Id_ii_S1_P4E.4_K4.3_C4.2_[C-2T]_H4.3_A4.1_F4.1_T4.2_[G10A]_[T11C]]
  Kd: 977 nM

## UCUCUUUGUAGCUUAUCUCUU (ssRNA) [Ic_S1_P4E.1_K4.1_C4.1_H4.1_A4.1_[T5G]_[A6C]_F4.1_T4.1]
  Kd: 28.6 nM

## UCUCUUGUACACUAUUAUCUCUCUU (ssRNA) [Id_ii_S1_P4E.4_K4.3_C4.2_[C-2G]_H4.3_A4.1_F4.1_T4.2_[G10T]_[T11C]]
  Kd: 0.681 nM

## UCUCUUGCACACUAUUAACUCUCUU (ssRNA) [Id_ii_S1_P4E.4_K4.3_C4.2_[C-2G]_[T-1C]_H4.3_A4.1_F4.1_T4.2_[G10A]_[T11C]]
  Kd: 69.5 nM

## UCUCUUUUACACUAUUACUUCUCUU (ssRNA) [Id_ii_S1_P4E.4_K4.3_C4.2_[C-2T]_H4.3_A4.1_F4.1_T4.2_[G10C]]
  Kd: 1160 nM

## UCUCUUUUACACUAUUAUAUCUCUU (ssRNA) [Id_ii_S1_P4E.4_K4.3_C4.2_[C-2T]_H4.3_A4.1_F4.1_T4.2_[G10T]_[T11A]]
  Kd: 944 nM

## UCUCUUGCACACUAUUACGUCUCUU (ssRNA) [Id_ii_S1_P4E.4_K4.3_C4.2_[C-2G]_[T-1C]_H4.3_A4.1_F4.1_T4.2_[G10C]_[T11G]]
  Kd: 408 nM

## UCUCUUAGACACUAUUAAUUCUCUU (ssRNA) [Id_ii_S1_P4E.4_K4.3_C4.2_[C-2A]_[T-1G]_H4.3_A4.1_F4.1_T4.2_[G10A]]
  Kd: > 2300 nM

## UCUCUUGCACACUAUUAGUUCUCUU (ssRNA) [Id_ii_S1_P4E.4_K4.3_C4.2_[C-2G]_[T-1C]_H4.3_A4.1_F4.1_T4.2]
  Kd: 347 nM

## UCUCUUGCACACUAUUAAAUCUCUU (ssRNA) [Id_ii_S1_P4E.4_K4.3_C4.2_[C-2G]_[T-1C]_H4.3_A4.1_F4.1_T4.2_[G10A]_[T11A]]
  Kd: 131 nM

## UCUCUUGCACACUAUUAUAUCUCUU (ssRNA) [Id_ii_S1_P4E.4_K4.3_C4.2_[C-2G]_[T-1C]_H4.3_A4.1_F4.1_T4.2_[G10T]_[T11A]]
  Kd: 351 nM

## UCUCUUGUACACUAUUAGUUCUCUU (ssRNA) [Id_ii_S1_P4E.4_K4.3_C4.2_[C-2G]_H4.3_A4.1_F4.1_T4.2]
  Kd: 1.27 nM

## UCUCUUCUUAUAUAUUAGUUCUCUU (ssRNA) [If_S1_P4E.3_K4.2_C4.2_H4.2_A4.1_F4.1_T4.2]
  Kd: 7.55 nM

## UCUCUUUUACACUAUUAGUUCUCUU (ssRNA) [Id_ii_S1_P4E.4_K4.3_C4.2_[C-2T]_H4.3_A4.1_F4.1_T4.2]
  Kd: 1370 nM

## UCUCUUUGUAGUUUAUCUCUU (ssRNA) [Ic_S1_P4E.1_K4.1_C4.1_H4.1_A4.1_[T5G]_[A6T]_F4.1_T4.1]
  Kd: 18.5 nM

## UCUCUUGUACACUAUUAAAUCUCUU (ssRNA) [Id_ii_S1_P4E.4_K4.3_C4.2_[C-2G]_H4.3_A4.1_F4.1_T4.2_[G10A]_[T11A]]
  Kd: 0.983 nM

## UCUCUUUUACACUAUUAAUUCUCUU (ssRNA) [Id_ii_S1_P4E.4_K4.3_C4.2_[C-2T]_H4.3_A4.1_F4.1_T4.2_[G10A]]
  Kd: 1120 nM

## UCUCUUUCACACUAUUACUUCUCUU (ssRNA) [Id_ii_S1_P4E.4_K4.3_C4.2_[C-2T]_[T-1C]_H4.3_A4.1_F4.1_T4.2_[G10C]]
  Kd: > 2300 nM

## UCUCUUUAACACUAUUACUUCUCUU (ssRNA) [Id_ii_S1_P4E.4_K4.3_C4.2_[C-2T]_[T-1A]_H4.3_A4.1_F4.1_T4.2_[G10C]]
  Kd: > 2300 nM

## UCUCUUACACACUAUUACUUCUCUU (ssRNA) [Id_ii_S1_P4E.4_K4.3_C4.2_[C-2A]_[T-1C]_H4.3_A4.1_F4.1_T4.2_[G10C]]
  Kd: > 2300 nM

## UCUCUUUUACACUAUUAUUUCUCUU (ssRNA) [Id_ii_S1_P4E.4_K4.3_C4.2_[C-2T]_H4.3_A4.1_F4.1_T4.2_[G10T]]
  Kd: 1130 nM

## UCUCUUUGACACUAUUAACUCUCUU (ssRNA) [Id_ii_S1_P4E.4_K4.3_C4.2_[C-2T]_[T-1G]_H4.3_A4.1_F4.1_T4.2_[G10A]_[T11C]]
  Kd: > 2300 nM

## UCUCUUAGACACUAUUAACUCUCUU (ssRNA) [Id_ii_S1_P4E.4_K4.3_C4.2_[C-2A]_[T-1G]_H4.3_A4.1_F4.1_T4.2_[G10A]_[T11C]]
  Kd: > 2300 nM

## UCUCUUUGACACUAUUACUUCUCUU (ssRNA) [Id_ii_S1_P4E.4_K4.3_C4.2_[C-2T]_[T-1G]_H4.3_A4.1_F4.1_T4.2_[G10C]]
  Kd: > 2300 nM

## UCUCUUUAACACUAUUAUUUCUCUU (ssRNA) [Id_ii_S1_P4E.4_K4.3_C4.2_[C-2T]_[T-1A]_H4.3_A4.1_F4.1_T4.2_[G10T]]
  Kd: > 2300 nM

## UCUCUUUCACACUAUUACCUCUCUU (ssRNA) [Id_ii_S1_P4E.4_K4.3_C4.2_[C-2T]_[T-1C]_H4.3_A4.1_F4.1_T4.2_[G10C]_[T11C]]
  Kd: > 2300 nM

## UCUCUUUGACACUAUUAUCUCUCUU (ssRNA) [Id_ii_S1_P4E.4_K4.3_C4.2_[C-2T]_[T-1G]_H4.3_A4.1_F4.1_T4.2_[G10T]_[T11C]]
  Kd: > 2300 nM

## UCUCUUUUACACUAUUACGUCUCUU (ssRNA) [Id_ii_S1_P4E.4_K4.3_C4.2_[C-2T]_H4.3_A4.1_F4.1_T4.2_[G10C]_[T11G]]
  Kd: 1680 nM

## UCUCUUGCACACUAUUACAUCUCUU (ssRNA) [Id_ii_S1_P4E.4_K4.3_C4.2_[C-2G]_[T-1C]_H4.3_A4.1_F4.1_T4.2_[G10C]_[T11A]]
  Kd: 99.1 nM

## UCUCUUGUACACUAUUAGCUCUCUU (ssRNA) [Id_ii_S1_P4E.4_K4.3_C4.2_[C-2G]_H4.3_A4.1_F4.1_T4.2_[T11C]]
  Kd: 0.962 nM

## UCUCUUUGUACGUUAUCUCUU (ssRNA) [Ic_S1_P4E.1_K4.1_C4.1_H4.1_A4.1_[T5C]_[A6G]_F4.1_T4.1]
  Kd: 4.05 nM

## UCUCUUGUACACUAUUAUUUCUCUU (ssRNA) [Id_ii_S1_P4E.4_K4.3_C4.2_[C-2G]_H4.3_A4.1_F4.1_T4.2_[G10T]]
  Kd: 0.832 nM

## UCUCUUACACACUAUUACCUCUCUU (ssRNA) [Id_ii_S1_P4E.4_K4.3_C4.2_[C-2A]_[T-1C]_H4.3_A4.1_F4.1_T4.2_[G10C]_[T11C]]
  Kd: > 2300 nM

## UCUCUUGUACACUAUUAUAUCUCUU (ssRNA) [Id_ii_S1_P4E.4_K4.3_C4.2_[C-2G]_H4.3_A4.1_F4.1_T4.2_[G10T]_[T11A]]
  Kd: 1.07 nM

## UCUCUUUGACACUAUUAGCUCUCUU (ssRNA) [Id_ii_S1_P4E.4_K4.3_C4.2_[C-2T]_[T-1G]_H4.3_A4.1_F4.1_T4.2_[T11C]]
  Kd: > 2300 nM

## UCUCUUGCACACUAUUAAUUCUCUU (ssRNA) [Id_ii_S1_P4E.4_K4.3_C4.2_[C-2G]_[T-1C]_H4.3_A4.1_F4.1_T4.2_[G10A]]
  Kd: 93.8 nM

## UCUCUUUCACACUAUUAUCUCUCUU (ssRNA) [Id_ii_S1_P4E.4_K4.3_C4.2_[C-2T]_[T-1C]_H4.3_A4.1_F4.1_T4.2_[G10T]_[T11C]]
  Kd: > 2300 nM

## UCUCUUUUACACUAUUAUCUCUCUU (ssRNA) [Id_ii_S1_P4E.4_K4.3_C4.2_[C-2T]_H4.3_A4.1_F4.1_T4.2_[G10T]_[T11C]]
  Kd: 1280 nM

## UCUCUUUUACACUAUUACCUCUCUU (ssRNA) [Id_ii_S1_P4E.4_K4.3_C4.2_[C-2T]_H4.3_A4.1_F4.1_T4.2_[G10C]_[T11C]]
  Kd: 1320 nM

## UCUCUUUAACACUAUUAGCUCUCUU (ssRNA) [Id_ii_S1_P4E.4_K4.3_C4.2_[C-2T]_[T-1A]_H4.3_A4.1_F4.1_T4.2_[T11C]]
  Kd: > 2300 nM

## UCUCUUUGACACUAUUAUUUCUCUU (ssRNA) [Id_ii_S1_P4E.4_K4.3_C4.2_[C-2T]_[T-1G]_H4.3_A4.1_F4.1_T4.2_[G10T]]
  Kd: > 2300 nM

## UCUCUUGCACACUAUUAUCUCUCUU (ssRNA) [Id_ii_S1_P4E.4_K4.3_C4.2_[C-2G]_[T-1C]_H4.3_A4.1_F4.1_T4.2_[G10T]_[T11C]]
  Kd: 91.3 nM

## UCUCUUGUACACUAUUAACUCUCUU (ssRNA) [Id_ii_S1_P4E.4_K4.3_C4.2_[C-2G]_H4.3_A4.1_F4.1_T4.2_[G10A]_[T11C]]
  Kd: 0.968 nM

## UCUCUUACACACUAUUACGUCUCUU (ssRNA) [Id_ii_S1_P4E.4_K4.3_C4.2_[C-2A]_[T-1C]_H4.3_A4.1_F4.1_T4.2_[G10C]_[T11G]]
  Kd: > 2300 nM

## UCUCUUGUACACUAUUACCUCUCUU (ssRNA) [Id_ii_S1_P4E.4_K4.3_C4.2_[C-2G]_H4.3_A4.1_F4.1_T4.2_[G10C]_[T11C]]
  Kd: 0.615 nM
